In paper PMC10148134:

Key:
ovalbumin (OVA) = ovalbumin (OVA) (UniProt P01012); assay: BLI; 10 μg/mL proteins (OVA, Bm-SA) coupled on AR2G or SA sensors; various concentrations of βγ-CAT as analyte, PBS as buffer; association 300 s, dissociation 180 s; Octet R2; 1:1 model
[1] = biological target: toad B. maxima serum albumin (Bm-SA) (Bombina maxima) (UniProt Q3T478); assay: as above
Sequence of UniProt Q3T478 (Q3T478 23-607): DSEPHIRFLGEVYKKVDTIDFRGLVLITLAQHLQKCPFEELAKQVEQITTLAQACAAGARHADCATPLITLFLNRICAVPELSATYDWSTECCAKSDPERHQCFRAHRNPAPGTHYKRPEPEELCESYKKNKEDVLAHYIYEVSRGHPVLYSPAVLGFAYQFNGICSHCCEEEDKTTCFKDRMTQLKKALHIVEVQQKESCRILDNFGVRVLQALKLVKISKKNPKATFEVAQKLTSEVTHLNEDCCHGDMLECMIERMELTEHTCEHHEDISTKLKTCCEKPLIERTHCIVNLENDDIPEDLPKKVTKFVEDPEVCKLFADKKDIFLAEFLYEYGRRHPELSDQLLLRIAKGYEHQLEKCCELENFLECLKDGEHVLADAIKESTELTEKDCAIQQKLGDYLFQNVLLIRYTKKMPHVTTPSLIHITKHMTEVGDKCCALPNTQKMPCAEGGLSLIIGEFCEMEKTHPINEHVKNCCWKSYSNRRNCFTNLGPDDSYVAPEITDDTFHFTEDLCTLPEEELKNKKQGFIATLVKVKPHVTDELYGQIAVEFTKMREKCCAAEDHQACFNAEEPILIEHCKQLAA

Sequence of UniProt P01012 (P01012 whole entry): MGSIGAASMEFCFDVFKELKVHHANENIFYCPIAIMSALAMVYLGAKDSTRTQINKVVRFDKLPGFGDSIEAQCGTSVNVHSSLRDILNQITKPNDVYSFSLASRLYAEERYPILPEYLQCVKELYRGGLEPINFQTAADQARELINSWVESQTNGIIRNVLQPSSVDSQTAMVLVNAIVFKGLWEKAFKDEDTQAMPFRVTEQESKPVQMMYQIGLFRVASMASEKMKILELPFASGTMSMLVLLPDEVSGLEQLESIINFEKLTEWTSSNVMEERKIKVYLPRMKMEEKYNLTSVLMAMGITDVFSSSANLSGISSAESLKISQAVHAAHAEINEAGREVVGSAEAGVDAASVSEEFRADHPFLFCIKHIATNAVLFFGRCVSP

## βγ-CAT, pore-forming protein (PFP) and trefoil factor complex of BmALP1 and BmTFF3 from toad Bombina maxima
Ovalbumin (OVA)
  Kd: 23.3 nM
[1]
  Kd: 24.7 nM
